# Key:
# [1] = target: HLA-B*54:01; test: IEDB peptide-MHC binding, purified MHC/competitive/radioactivity; filed as Kd, often an IC50 or EC50 that approximates it; ≥ and ≤ were set here for values at or beyond the usual limits of such assays
# [2] = target: HLA-B*35:01; test: as above
# [3] = target: HLA-B*53:01; test: as above
# [4] = target: HLA-B*07:02; test: as above
# [5] = target: HLA-B*51:01; test: as above
# [6] = target: HLA-B*40:01; test: as above; settings: source organism: Dengue virus 3 Martinique/1243/1999
# [7] = target: HLA-B*44:03; test: as above
# [8] = target: HLA-A*03:01; test: IEDB peptide-MHC binding, purified MHC/competitive/fluorescence; filed as Kd, often an IC50 or EC50 that approximates it; ≥ and ≤ were set here for values at or beyond the usual limits of such assays
# [9] = target: HLA-A*26:01; test: as above; settings: source organism: Kurkino virus
# [10] = target: HLA-B*40:01; test: IEDB peptide-MHC binding, purified MHC/direct/fluorescence; filed as Kd, often an IC50 or EC50 that approximates it; ≥ and ≤ were set here for values at or beyond the usual limits of such assays
# [11] = target: HLA-A*69:01; test: as above; settings: source organism: Bacillus anthracis
# [12] = target: HLA-A*26:01; test: as above; settings: source organism: Bacillus anthracis
# [13] = target: HLA-B*58:01; test: as above; settings: source organism: Bacillus anthracis
# [14] = target: HLA-B*07:02; test: as above; settings: source organism: Bacillus anthracis
# [15] = target: HLA-A*03:01; test: as above; settings: source organism: Bacillus anthracis
# [16] = target: HLA-A*01:01; test: as above; settings: source organism: Bacillus anthracis
# [17] = target: HLA-A*02:01; test: as above; settings: source organism: Bacillus anthracis
# [18] = target: HLA-B*44:02; test: as above; settings: source organism: Bacillus anthracis
# [19] = target: HLA-A*11:01; test: as above; settings: source organism: Bacillus anthracis
# [20] = target: HLA-A*31:01; test: as above; settings: source organism: Bacillus anthracis
# [21] = target: HLA-B*15:01; test: as above; settings: source organism: Bacillus anthracis
# [22] = target: HLA-B*27:05; test: as above; settings: source organism: Bacillus anthracis
# [23] = target: HLA-B*08:01; test: as above; settings: source organism: Bacillus anthracis
# [24] = target: HLA-B*15:01; test: IEDB peptide-MHC binding, purified MHC/competitive/radioactivity; filed as Kd, often an IC50 or EC50 that approximates it; ≥ and ≤ were set here for values at or beyond the usual limits of such assays; settings: source organism: Dengue virus 1 Brazil/97-11/1997
# [25] = target: HLA-B*18:01; test: IEDB peptide-MHC binding, purified MHC/direct/fluorescence; filed as Kd, often an IC50 or EC50 that approximates it; ≥ and ≤ were set here for values at or beyond the usual limits of such assays
# [26] = target: HLA-A*68:01; test: IEDB peptide-MHC binding, purified MHC/competitive/radioactivity; filed as Kd, often an IC50 or EC50 that approximates it; ≥ and ≤ were set here for values at or beyond the usual limits of such assays; settings: source organism: Vaccinia virus WR
# [27] = target: HLA-A*33:01; test: as above; settings: source organism: Vaccinia virus WR
# [28] = target: HLA-A*03:01; test: as above; settings: source organism: Vaccinia virus WR
# [29] = target: HLA-A*11:01; test: as above; settings: source organism: Vaccinia virus WR
# [30] = target: HLA-A*31:01; test: as above; settings: source organism: Vaccinia virus WR
# [31] = source organism: Triticum aestivum
# [32] = source organism: Vaccinia virus WR
# [33] = source organism: SARS coronavirus Tor2
# [34] = source organism: Dengue virus 1 Brazil/97-11/1997
# [35] = source organism: Salmonella enterica
# [36] = source organism: Lymphocytic choriomeningitis virus (strain Armstrong)
sequence,measurement,setting,value
QPFPSQQPYL,Kd,[1]; [31],10.8 µM
same,Kd,[2]; [31],0.433 µM
same,Kd,[3]; [31],8.54 µM
same,Kd,[4]; [31],17.5 µM
same,Kd,[5]; [31],0.0103 µM
EESRTIRVL,Kd,[6],0.249 µM
same,Kd,[7]; source organism: Dengue virus 3 Martinique/1243/1999,0.0302 µM
RLNPMHQLLR,Kd,[8]; source organism: Influenza A virus H3N2,0.805 µM
AKNPNRFVI,Kd,[1]; source organism: Variola virus,≥ 78.1 µM
same,Kd,[2]; source organism: Variola virus,≥ 77.4 µM
same,Kd,[3]; source organism: Variola virus,≥ 78.1 µM
same,Kd,[4]; source organism: Variola virus,11.9 µM
same,Kd,[5]; source organism: Variola virus,≥ 77.4 µM
MPSACANGWI,Kd,[1]; [32],5.4 µM
same,Kd,[2]; [32],≥ 69.9 µM
same,Kd,[3]; [32],5.24 µM
same,Kd,[4]; [32],≥ 31.4 µM
same,Kd,[5]; [32],≥ 43.5 µM
DPVYISQFSY,Kd,[1]; [32],≥ 38.6 µM
same,Kd,[2]; [32],0.928 µM
same,Kd,[3]; [32],10.5 µM
same,Kd,[4]; [32],≥ 69.6 µM
same,Kd,[5]; [32],≥ 69.6 µM
ADTGCAVSW,Kd,[7]; source organism: Dengue virus 4 Philippines/H241/1956,0.224 µM
FPDIPVNNNI,Kd,[1]; [32],0.0693 µM
same,Kd,[2]; [32],0.442 µM
same,Kd,[3]; [32],0.00122 µM
same,Kd,[4]; [32],0.821 µM
same,Kd,[5]; [32],0.0667 µM
KPLLAPHHVV,Kd,[1]; [33],7.25 µM
same,Kd,[2]; [33],≥ 69.9 µM
same,Kd,[3]; [33],≥ 69.9 µM
same,Kd,[4]; [33],0.179 µM
same,Kd,[5]; [33],≥ 69.6 µM
RMKWMMAMRY,Kd,[8]; source organism: Influenza A virus (A/chicken/Fujian/25/00(H9N2)),0.131 µM
NSIPAVIGY,Kd,[9],0.42 µM
FIFGKMGAG,Kd,[10]; source organism: Bacillus anthracis,≥ 20 µM
same,Kd,[11],≥ 20 µM
same,Kd,[12],5.37 µM
same,Kd,[13],≥ 20 µM
same,Kd,[14],≥ 20 µM
same,Kd,[15],≥ 20 µM
same,Kd,[16],≥ 20 µM
same,Kd,[17],≥ 20 µM
same,Kd,[18],≥ 20 µM
same,Kd,[19],≥ 20 µM
same,Kd,[20],≥ 20 µM
same,Kd,[21],≥ 20 µM
same,Kd,[22],≥ 20 µM
same,Kd,[23],≥ 20 µM
MEHKYSWKS,Kd,[7]; [34],1 µM
QQVPFCSHHF,Kd,[7]; [34],0.272 µM
same,Kd,[24],0.0139 µM
VEEDIRWKF,Kd,[25]; source organism: Bacillus cereus,0.0192 µM
NERWFREVI,Kd,[10]; [35],0.653 µM
same,Kd,[25]; [35],0.0052 µM
EPVPLTVKM,Kd,[1]; [36],≥ 69.5 µM
same,Kd,[2]; [36],0.0634 µM
same,Kd,[3]; [36],0.327 µM
same,Kd,[4]; [36],15 µM
same,Kd,[5]; [36],12.7 µM
HVDGKILFV,Kd,[1]; [32],≥ 78.1 µM
same,Kd,[2]; [32],≥ 77.4 µM
same,Kd,[26],≥ 77.7 µM
same,Kd,[3]; [32],11.5 µM
same,Kd,[4]; [32],≥ 77.5 µM
same,Kd,[27],≥ 77.7 µM
same,Kd,[28],3.14 µM
same,Kd,[5]; [32],≥ 68.5 µM
same,Kd,[29],≥ 72.3 µM
same,Kd,[30],≥ 40.5 µM

# Reference: the Immune Epitope Database (IEDB)
